Results from patent publication US11918610B2, “Methods for diagnosis and treatment of type 1 diabetes” (priority 2018, dated 2024).

System: non-obese diabetic mice (NOD/ShiLtJ) colonized with E. coli VT-55
Type: in vivo
Details: NOD mice gavaged with E. coli VT-55; regimen of each agent as in Table 3; positive control (no therapy) 16, negative controls 24 and 26
Experimental: For this study non-obese diabetic mice (NOD/ShiLtJ) 8 weeks old (Jackson Laboratory, Bar Harbor, Me., USA) were housed and bred under specific pathogen-free conditions. Mice were maintained in a temperature controlled (22±2° C.) animal facility with a 12 hour light/dark cycle and were allowed free access to food and acidified drinking water. To increase the efficacy of E. coli transfer, all animals were exposed to antibiotic treatment before the transfer of E. coli. Starting at three weeks of age, recipient mice were treated with ampicillin (1 g/L) in the drinking water for the next 4 weeks. The bacterial strains used: E. coli strain VT-55—a wild-type, amyloid-producing strain. E. coli VT-55 bacteria were administered with oropharyngeal gavage to 8 week old female mice at 10^8 CFU, 2 times a week. Acceleration of T1D development was accessed by measuring blood glucose in a manner consistent with diabetes monitoring, using a FreeStyle Lite meter and test strips (Abbott). Blood glucose was evaluated weekly via a tail vein. T1D development was defined as occurring after two consecutive blood glucose measurements of at least 250 mg/dL.
TTR was expressed in E. coli VT-243. The TTR protein was precipitated from the supernatant of a 48 hour culture of E. coli VT-243 after centrifugation (12,000×g, 20 minutes 4° C.) of the lysed cells in the gradient 40-90% ammonium sulfate fraction (1.8-3.6 M). The precipitate that contained TTR was dialyzed overnight against 10 mM sodium phosphate buffer, pH 7.5, 100 mM KCl, 1 mM EDTA. The same volume of 200 mM sodium acetate buffer (pH 4.4, 100 mM KCl, 1 mM EDTA) was added to achieve a final pH of 4.5, and the mixture was then incubated for 18 hours at 37° C. Following centrifugation (45 min, 30,000×g, 4° C.), the supernatant was gel filtrated (Superdex 75) to elute phosphate buffer.
To develop nanoparticles with siRNA, we used cholesterol, distearoyl-sn-glycerol-3-phosphocholine (DSPC) and PEG2000-DMG (all Sigma). Nanoparticles were prepared by dissolving the 306013 lipidoid, cholesterol, DSPC, and PEG2000-DMG with final molar ratio of 50:38.5:10:1.5 in a 90% ethanol enriched with 10% 10 nM sodium citrate. Particles were formed following vortexing of equal volumes of siRNA solution with the lipid solution and subsequent dilution in PBS. Mice were orally gavaged with nanoparticles loaded with siRNA at a dose of 5 mg/kg.
The EcVac vaccine consisted of conjugates containing the 0-antigens of serotypes 06 of E. coli VT-55. […] The suspension for iv administration was made in TBS, (pH 7.4; 25 mmol Tris, 137 mmol NaCl, 2.8 mmol KCl).
Balb/c mice were immunized (10 μg) intraperitoneally and boosted (1 μg) subcutaneously with the E. coli amyloid isolated as previously described. Splenocytes were removed under sterile conditions, washed and hybridized to murine plasmacytoma parent cell line SP2/OAg14 using 40% polyethylene glycol and a spleen cell to plasmacytoma cell ratio of 5:1. Cells were plated in 96-well microtiter (Sarstedt) plates at 100,000 cells/per well with DMEM supplemented with 10% fetal bovine serum. Following 48h, cells were supplemented with hypoxanthine (100 PM) containing medium. After three washes with PBS-1% BSA, the presence of specific antibody binding was detected by ELISA. Serotype specific wells were cloned. Pristine-primed BALB/c mice were IP injected with 1×10^7 hybridoma cells. Ascites fluid was collected 14 days later, centrifuged (5000 g, 20 min, Eppendorf) and stored at −80° C. before use.

B1: T7 Endonuclease I: T7 Endonuclease I (New England Biolabs) (protein, UniProt P00641 1-149, looked up)
Endonuclease I: MAGYGAKGIRKVGAFRSGLEDKVSKQLESKGIKFEYEEWKVPYVIPASNHTYTPDFLLPNGIFVETKGLWESDDRKKHLLIREQHPELDIRIVFSSSRTKLYKGSPTSYGEFCEKHGIKFADKLIPAEWIKEPKKEVPFDRLKRKGGKK
Median T1D incidence 50% (weeks): 22 weeks
